According to the DeepSol protein solubility set:

test: soluble on expression in E. coli; label from the status in PepcDB or PDB records

| Sequence | soluble on expression in E. coli |
| --- | --- |
| MEDTAEENNESIDDQPSTSTATDPNQTRETEKEKGDDEMFRLLQATDEILENKAKSMNLSSLNVRSILHHLIKYPSTIDVLLGIRENDDLPSVRNMRSRKKPDDSGASSTVNTPKKFGALRIEDRGPKSFLDLEYEEDDEYDDDYIEENDTSTRNKLNAGSEEDEENDDEEEIEDEGEDEDDEEQDELEEDGEHEITGSEACTSGQNDTMHALLFDETSEDVQNEEDYVLNMTLNDTRAESVAPIPTLDNVDDDGFYRDFVTGINRTEKDNDNLEVLDTEDDPDDEDYNVCADDGLNVEDWDETRQDKTTQIPRHELKALMIDTLLAEKEIPLNAFPEEAINGEEHRKSQKVKDAEVYERINTSISSSSESCSLLKDSLATFRPQELQQLNMQLEQHVQLLTQLVVTCHHDVNLSHVRNSSQLMMNELDDIRQQKIYPTVFDVRNLDAAIESCHDINAFDAVDESFLKYAENTEGYGGIALRPEAAVVLSRSNAIRYPALLPSRQPFFIETPIPFLSEEDLMLAVALLQFAHLPRRGEKEMIDRYTAIQQHCLPARSSYKIRTHLKSMRRSDKNPIHQIMQAAEKGVCKLVLPLKSWQESDTPICQWPPASQPGWYRRFQETFNVTEERKILRKHVSTMVLTPVKNKDRQDQEASEATFESGEEGEDDEFVNMGTAPDGRKIIMGREHIEDLVHQLIKQNEISPSKRRKNPTPMKLSTMIQLEEAEKRIADSQKNSCGGQTISALSNVSGDSNVDNNGTHEKELMPSTSSIDSLESINNQETSKFPRPLPMSDQPTLNTSCHITTTTCSVSYEDVDVGTLKKSYVEITASKYETNSNSCFSYPIPPTPGRRSPDDFDDYFMDLESNSLMWPQTPYAVTDENPQTPRGFSASESSEPIDFSSLGKATSLDTEEIVFQSTSCQRPMGYCSDFGEFSNSSSLPEEIPVPSHQRTPQESAIEDDSSMPGLDMVPLYEEDVEECIIEDIEEEEAPIKQGLVNSRPPLRFKKEVKAGITNLAPSRKRTRIEREAMGSVGLDDEQLHDKQKENIMRKVIEDVNQRLFMHTDTYQRFKEAITDENLTDFEKVTRTIIILANHPELLNLVLLNAPPEAVISDLQCDHNYQSYKVAIEMIMDIERYITAAKLKEPSLKGLFRYIQSFLEDKPNMTDEQATKRFYELFGQDRPLWKKLESRFWCLPYKARPRLENYEYIDLTGLETMSKREKRDWNSIPPRFETVDDIDQVMGSVYRASKNEPPSNLVVKCGEFCIRNDDETYTQLEITERLWTRKDDISLLTSYNEALKTIPNFTVSQMPSLISDLSFGEKSIIARLQYLLTELKSLD | soluble |
| MEEAEKPLQVAAVDSSVPRTAELAGITTLDDPLGHMPERFDAFICYCPSDIQFVQEMIRQLEQTNYRLKLCVSDRDVLPGTCVWSIASELIEKRCRRMVVVVSDDYLQSKECDFQTKFALSLSPGAHQKRLIPIKYKAMKKEFPSILRFITVCDYTNPCTKSWFWTRLAKALSLPLEHHHHHH | soluble |
| MEEEAAVEKPISLNQQRMNGVVAALKQSNARRVIDLGCGQGNLLKILLKDSFFEQITGVDVSYRSLEIAQERLDRLRLPRNQWERLQLIQGALTYQDKRFHGYDAATVIEVIEHLDLSRLGAFERVLFEFAQPKIVIVTTPNIEYNVKFANLPAGKLRHKDHRFEWTRSQFQNWANKITERFAYNVQFQPIGEADPEVGSPTQMAVFIHRGHHHHHH | soluble |
| MEEQNNNQLQIELKEEVAQGTYANLAIITHSSSEFILDFVRVMPGVPKAGVQSRIIVAPEHAKRLLRALEDNIAKYERAFGPIRISEESPMPPLSVVKGEA | not soluble |
| MEEYEFLVRVREAGGFDIEHLMDTKPSSCVIGCREFDNNDDYNAHIVLFARMGIHKYNMIQGTNLQLSCVEKYNYRSPRVYSAFYITLIAKDPDACNSLVTFQTRVVEEGFNMTKLSCNIARPKPGPQENAALPRHSVDLEPVKKSELLTHDWIRLYMELAFLKAHLRSPKNPNLSKLVIVMVAIETKDNMEPPSERLKARNAFFYIKYKYHANKGRGPKRRLGHKTPDRIAIVRRTLDKNTGYLTLEFPEPIL | soluble |
| MEFLKLSEGKTKEVYAYDDSHVLLKFKDSITAGDGARKDILEGKGILNAQTSAFLFRLLESKGIETHYIGMFDERTMIAKKLKMIPVEVVLRNIATGSIVKRLPIKEGEVFEPPIIEFFLKDDERHDPMLNYYHMEYLKLMTRKEAEKIEEIMLKVNEILYPFFRSKKLLLYDFKLEFGRVNDKLIIGDELTLDSMRIREEGSGRILDKDLYRKGADLETVKKAYEEFFKRISE | soluble |
| MEFSVKSGSPEKQRSACIVVGVFEPRRLSPIAEQLDKISDGYISALLRRGELEGKPGQTLLLHHVPNVLSERILLIGCGKERELDERQYKQVIQKTINTLNDTGSMEAVCFLTELHVKGRNNYWKVRQAVETAKETLYSFDQLKTNKSEPRRPLRKMVFNVPTRRELTSGERAIQHGLAIAAGIKAAKDLGNMPPNICNAAYLASQARQLADSYSKNVITRVIGEQQMKELGMHSYLAVGQGSQNESLMSVIEYKGNASEDARPIVLVGKGLTFDSGGISIKPSEGMDEMKYDMCGAAAVYGVMRMVAELQLPINVIGVLAGCENMPGGRAYRPGDVLTTMSGQTVEVLNTDAEGRLVLCDVLTYVERFEPEAVIDVATLTGACVIALGHHITGLMANHNPLAHELIAASEQSGDRAWRLPLGDEYQEQLESNFADMANIGGRPGGAITAGCFLSRFTRKYNWAHLDIAGTAWRSGKAKGATGRPVALLAQFLLNRAGFNGEE | soluble |
| MEFVPEQHPPITETTTGAASNGCPVVGHMKYPVEGGGNQDWWPNRLNLKVLHQNPAVADPMGAAFDYAAEVATIDVDALTRDIEEVMTTSQPWWPADYGHYGPLFIRMAWHAAGTYRIHDGRGGAGGGMQRFAPLNSWPDNASLDKARRLLWPVKKKYGKKLSWADLIVFAGNCALESMGFKTFGFGFGRVDQWEPDEVYWGKEATWLGDERYSGKRDLENPLAAVQMGLIYVNPEGPNGNPDPMAAAVDIRETFRRMAMNDVETAALIVGGHTFGKTHGAGPADLVGPEPEAAPLEQMGLGWKSSYGTGTGKDAITSGIEVVWTNTPTKWDNSFLEILYGYEWELTKSPAGAWQYTAKDGAGAGTIPDPFGGPGRSPTMLATDLSLRVDPIYERITRRWLEHPEELADEFAKAWYKLIHRDMGPVARYLGPLVPKQTLLWQDPVPAVSHDLVGEAEIASLKSQIRASGLTVSQLVSTAWAAASSFRGSDKRGGANGGRIRLQPQVGWEVNDPDGDLRKVIRTLEEIQESFNSAAPGNIKVSFADLVVLGGCAAIEKAAKAAGHNITVPFTPGRTDASQEQTDVESFAVLEPKADGFRNYLGKGNPLPAEYMLLDKANLLTLSAPEMTVLVGGLRVLGANYKRLPLGVFTEASESLTNDFFVNLLDMGITWEPSPADDGTYQGKDGSGKVKWTGSRVDLVFGSNSELRALVEVYGADDAQPKFVQDFVAAWDKVMNLDRFDVR | soluble |
| MEGSHHHHHHSQAQSKAQVLQSVAGQTLTVRCQYPPTGSLYEKKGWCKEASALVCIRLVTSSKPRTMAWTSRFTIWDDPDAGFFTVTMTDLREEDSGHYWCRIYRPSDNSVSKSVRFYLVVS | soluble |
| MEHEGLLVAEREIEVNNYDIDAMGIVSNIVYIRWFEDLRTIFINEYMTFSEMMKEHISPILMKTEIEYKVPITIHDKPVGRCWFVKAGRMKWVFKFEITSGDKVHCIGQQTGGFLDLERQRITKMPLEHHHHHH | not soluble |
| MEHIEIRVSATGSMSSFHALCSFHQWPINVACSCWLSHCYRIYSLYPPQLVSCSDRLSTSGNTNAGAEFVTE | soluble |
| MEHKEVVLLLLLFLKSGQGEPLDDYVNTQGPSLFSVTKKQLGAGSREECAAKCEEDKEFTCRAFQYHSKEQQCVIMAENRKSSIIIRMRDAVLFEK | not soluble |
